These results are taken from paper PMC10786891, “Massively parallel profiling of RNA-targeting CRISPR-Cas13d”.

To fix the notation:
B1: target 1 insA 3' of 17,insU 3' of 2 (mixed)
RNA 1: CACCCGUGCAAAAAUGCAGGGGUCUAAAACUGAGCGGAUAACCUCUCUAUGG
RNA 2: GGGAAUGGAUCCACAUCUACGAAUUCGUACCAUAGAAGAGGUUAUCCGCUCUACCGAGAUCGGAAGAGCACACGU
B2: target 1 A9G,A16G (mixed)
RNA 1: CACCCGUGCAAAAAUGCAGGGGUCUAAAACUGAGCGGAUAACCUCUCUAUGG
RNA 2: GGGAAUGGAUCCACAUCUACGAAUUCGUACCAUAGGGAGGUUGUCCGCUCACCGAGAUCGGAAGAGCACACGU
B3: target 1 insG 3' of 11,insU 3' of 9 (mixed)
RNA 1: CACCCGUGCAAAAAUGCAGGGGUCUAAAACUGAGCGGAUAACCUCUCUAUGG
RNA 2: GGGAAUGGAUCCACAUCUACGAAUUCGUACCAUAGAGAGGUGUAUUCCGCUCACCGAGAUCGGAAGAGCACACGU
B4: target 1 C2A,C4A (mixed)
RNA 1: CACCCGUGCAAAAAUGCAGGGGUCUAAAACUGAGCGGAUAACCUCUCUAUGG
RNA 2: GGGAAUGGAUCCACAUCUACGAAUUCGUACCAUAGAGAGGUUAUCCGAUAACCGAGAUCGGAAGAGCACACGU
B5: target 1 insG 3' of 21,insU 3' of 7 (mixed)
RNA 1: CACCCGUGCAAAAAUGCAGGGGUCUAAAACUGAGCGGAUAACCUCUCUAUGG
RNA 2: GGGAAUGGAUCCACAUCUACGAAUUCGUACCGAUAGAGAGGUUAUCUCGCUCACCGAGAUCGGAAGAGCACACGU
B6: target 1 C6G,G17C (mixed)
RNA 1: CACCCGUGCAAAAAUGCAGGGGUCUAAAACUGAGCGGAUAACCUCUCUAUGG
RNA 2: GGGAAUGGAUCCACAUCUACGAAUUCGUACCAUACAGAGGUUAUCGGCUCACCGAGAUCGGAAGAGCACACGU
B7: target 1 C4G,A18U (mixed)
RNA 1: CACCCGUGCAAAAAUGCAGGGGUCUAAAACUGAGCGGAUAACCUCUCUAUGG
RNA 2: GGGAAUGGAUCCACAUCUACGAAUUCGUACCAUUGAGAGGUUAUCCGGUCACCGAGAUCGGAAGAGCACACGU
B8: target 1 del8,del20 (mixed)
RNA 1: CACCCGUGCAAAAAUGCAGGGGUCUAAAACUGAGCGGAUAACCUCUCUAUGG
RNA 2: GGGAAUGGAUCCACAUCUACGAAUUCGUACCUAGAGAGGUUACCGCUCACCGAGAUCGGAAGAGCACACGU
B9: target 1 insG 3' of 18,insA 3' of 10 (mixed)
RNA 1: CACCCGUGCAAAAAUGCAGGGGUCUAAAACUGAGCGGAUAACCUCUCUAUGG
RNA 2: GGGAAUGGAUCCACAUCUACGAAUUCGUACCAUAGGAGAGGUUAAUCCGCUCACCGAGAUCGGAAGAGCACACGU
B10: target 1 insU 3' of 13,insA 3' of 6 (mixed)
RNA 1: CACCCGUGCAAAAAUGCAGGGGUCUAAAACUGAGCGGAUAACCUCUCUAUGG
RNA 2: GGGAAUGGAUCCACAUCUACGAAUUCGUACCAUAGAGAGUGUUAUCCAGCUCACCGAGAUCGGAAGAGCACACGU
B11: target 1 insC 3' of 8,insU 3' of 2 (mixed)
RNA 1: CACCCGUGCAAAAAUGCAGGGGUCUAAAACUGAGCGGAUAACCUCUCUAUGG
RNA 2: GGGAAUGGAUCCACAUCUACGAAUUCGUACCAUAGAGAGGUUAUCCCGCUCUACCGAGAUCGGAAGAGCACACGU
B12: target 1 A1U,G13U (mixed)
RNA 1: CACCCGUGCAAAAAUGCAGGGGUCUAAAACUGAGCGGAUAACCUCUCUAUGG
RNA 2: GGGAAUGGAUCCACAUCUACGAAUUCGUACCAUAGAGAUGUUAUCCGCUCUCCGAGAUCGGAAGAGCACACGU
B13: target 1 G12U,G15A (mixed)
RNA 1: CACCCGUGCAAAAAUGCAGGGGUCUAAAACUGAGCGGAUAACCUCUCUAUGG
RNA 2: GGGAAUGGAUCCACAUCUACGAAUUCGUACCAUAGAAAGUUUAUCCGCUCACCGAGAUCGGAAGAGCACACGU
B14: target 1 U3C,A14C (mixed)
RNA 1: CACCCGUGCAAAAAUGCAGGGGUCUAAAACUGAGCGGAUAACCUCUCUAUGG
RNA 2: GGGAAUGGAUCCACAUCUACGAAUUCGUACCAUAGAGCGGUUAUCCGCCCACCGAGAUCGGAAGAGCACACGU
B15: target 1 insA 3' of 22,insU 3' of 2 (mixed)
RNA 1: CACCCGUGCAAAAAUGCAGGGGUCUAAAACUGAGCGGAUAACCUCUCUAUGG
RNA 2: GGGAAUGGAUCCACAUCUACGAAUUCGUACACAUAGAGAGGUUAUCCGCUCUACCGAGAUCGGAAGAGCACACGU
B16: target 1 insU 3' of 20,insC 3' of 12 (mixed)
RNA 1: CACCCGUGCAAAAAUGCAGGGGUCUAAAACUGAGCGGAUAACCUCUCUAUGG
RNA 2: GGGAAUGGAUCCACAUCUACGAAUUCGUACCAUUAGAGAGGCUUAUCCGCUCACCGAGAUCGGAAGAGCACACGU
B17: target 1 insA 3' of 15,insU 3' of 4 (mixed)
RNA 1: CACCCGUGCAAAAAUGCAGGGGUCUAAAACUGAGCGGAUAACCUCUCUAUGG
RNA 2: GGGAAUGGAUCCACAUCUACGAAUUCGUACCAUAGAGAAGGUUAUCCGCUUCACCGAGAUCGGAAGAGCACACGU
B18: target 1 insG 3' of 9,insC 3' of 3 (mixed)
RNA 1: CACCCGUGCAAAAAUGCAGGGGUCUAAAACUGAGCGGAUAACCUCUCUAUGG
RNA 2: GGGAAUGGAUCCACAUCUACGAAUUCGUACCAUAGAGAGGUUAGUCCGCUCCACCGAGAUCGGAAGAGCACACGU
B19: target 1 insA 3' of 7,insA 3' of 2 (mixed)
RNA 1: CACCCGUGCAAAAAUGCAGGGGUCUAAAACUGAGCGGAUAACCUCUCUAUGG
RNA 2: GGGAAUGGAUCCACAUCUACGAAUUCGUACCAUAGAGAGGUUAUCACGCUCAACCGAGAUCGGAAGAGCACACGU
B20: target 1 insA 3' of 11,insG 3' of 7 (mixed)
RNA 1: CACCCGUGCAAAAAUGCAGGGGUCUAAAACUGAGCGGAUAACCUCUCUAUGG
RNA 2: GGGAAUGGAUCCACAUCUACGAAUUCGUACCAUAGAGAGGUAUAUCGCGCUCACCGAGAUCGGAAGAGCACACGU
B21: target 1 insA 3' of 21,insC 3' of 5 (mixed)
RNA 1: CACCCGUGCAAAAAUGCAGGGGUCUAAAACUGAGCGGAUAACCUCUCUAUGG
RNA 2: GGGAAUGGAUCCACAUCUACGAAUUCGUACCAAUAGAGAGGUUAUCCGCCUCACCGAGAUCGGAAGAGCACACGU
B22: target 1 complement block 3-14 (mixed)
RNA 1: CACCCGUGCAAAAAUGCAGGGGUCUAAAACUGAGCGGAUAACCUCUCUAUGG
RNA 2: GGGAAUGGAUCCACAUCUACGAAUUCGUACCAUAGAGUCCAAUAGGCGACACCGAGAUCGGAAGAGCACACGU
B23: target 1 insG 3' of 11,insC 3' of 10 (mixed)
RNA 1: CACCCGUGCAAAAAUGCAGGGGUCUAAAACUGAGCGGAUAACCUCUCUAUGG
RNA 2: GGGAAUGGAUCCACAUCUACGAAUUCGUACCAUAGAGAGGUGUCAUCCGCUCACCGAGAUCGGAAGAGCACACGU
B24: target 1 A1C,G12A (mixed)
RNA 1: CACCCGUGCAAAAAUGCAGGGGUCUAAAACUGAGCGGAUAACCUCUCUAUGG
RNA 2: GGGAAUGGAUCCACAUCUACGAAUUCGUACCAUAGAGAGAUUAUCCGCUCCCCGAGAUCGGAAGAGCACACGU
B25: target 1 insG 3' of 6,insA 3' of 2 (mixed)
RNA 1: CACCCGUGCAAAAAUGCAGGGGUCUAAAACUGAGCGGAUAACCUCUCUAUGG
RNA 2: GGGAAUGGAUCCACAUCUACGAAUUCGUACCAUAGAGAGGUUAUCCGGCUCAACCGAGAUCGGAAGAGCACACGU
B26: target 1 insU 3' of 12,insC 3' of 5 (mixed)
RNA 1: CACCCGUGCAAAAAUGCAGGGGUCUAAAACUGAGCGGAUAACCUCUCUAUGG
RNA 2: GGGAAUGGAUCCACAUCUACGAAUUCGUACCAUAGAGAGGUUUAUCCGCCUCACCGAGAUCGGAAGAGCACACGU
B27: target 1 insG 3' of 6,insC 3' of 1 (mixed)
RNA 1: CACCCGUGCAAAAAUGCAGGGGUCUAAAACUGAGCGGAUAACCUCUCUAUGG
RNA 2: GGGAAUGGAUCCACAUCUACGAAUUCGUACCAUAGAGAGGUUAUCCGGCUCACCCGAGAUCGGAAGAGCACACGU

The target of the data set is T1, EsCas13d, nuclease-dead (Eubacterium siraeum, UniProt B0MS50, R295A;H300A;R849A;H854A).
T1 sequence: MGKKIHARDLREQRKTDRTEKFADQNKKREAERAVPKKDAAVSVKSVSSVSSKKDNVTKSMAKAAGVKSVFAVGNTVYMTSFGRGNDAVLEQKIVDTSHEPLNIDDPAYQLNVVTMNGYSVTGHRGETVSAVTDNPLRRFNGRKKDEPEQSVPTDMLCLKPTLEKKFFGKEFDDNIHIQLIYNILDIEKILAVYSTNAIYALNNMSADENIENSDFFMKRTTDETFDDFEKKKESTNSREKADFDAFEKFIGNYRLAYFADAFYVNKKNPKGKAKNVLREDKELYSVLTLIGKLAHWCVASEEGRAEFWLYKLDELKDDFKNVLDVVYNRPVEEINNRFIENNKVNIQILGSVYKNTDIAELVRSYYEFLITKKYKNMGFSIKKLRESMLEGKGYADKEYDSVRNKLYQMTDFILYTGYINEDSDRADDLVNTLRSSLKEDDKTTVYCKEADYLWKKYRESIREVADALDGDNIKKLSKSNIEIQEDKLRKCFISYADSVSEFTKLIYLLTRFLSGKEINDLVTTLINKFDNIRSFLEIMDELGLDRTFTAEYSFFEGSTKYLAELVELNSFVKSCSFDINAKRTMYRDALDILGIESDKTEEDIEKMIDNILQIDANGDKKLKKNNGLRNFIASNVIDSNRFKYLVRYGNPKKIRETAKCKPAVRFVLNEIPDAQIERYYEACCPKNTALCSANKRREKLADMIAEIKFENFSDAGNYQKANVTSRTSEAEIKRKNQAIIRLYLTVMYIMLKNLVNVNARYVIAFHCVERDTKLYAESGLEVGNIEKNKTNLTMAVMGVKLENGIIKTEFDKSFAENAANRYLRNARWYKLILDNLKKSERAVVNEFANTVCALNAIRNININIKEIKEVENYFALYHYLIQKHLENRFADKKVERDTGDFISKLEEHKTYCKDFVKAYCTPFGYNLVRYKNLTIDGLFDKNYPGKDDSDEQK
The data set can be described thus: crRNA (strand 1, pre-loaded); Mg2+; 40 mM Tris-HCl pH 7.5, 150 mM NaCl, 6 mM MgCl2, 1 mM DTT, 0.1% Tween-20, 0.2 mg/ml BSA; 25 C; 10 min per concentration, then washed. The note with it: tags: His6-TwinStrep-SUMO cleaved; N-terminal SNAP kept (SNAP-Surface 488); label: 3' end held by stalled T7 RNA polymerase.
With B1, binding was put at a Kd of 15.4 ± 1.6 nM.
For B2, the Kd was 37 ± 4 nM. Against the preceding molecule, the Kd is about 2.4-fold higher.
Turning to B3, binding was characterised by a dissociation constant (Kd) of 28 ± 5 nM.
B4 had a Kd of 10.3 ± 0.5 nM.
In turn, B5 gave a Kd of 73 ± 9 nM. This Kd lies about 7.1-fold higher than the previous one.
In the case of B6, the Kd was approximately 41 nM.
On to B7, for which binding was put at a Kd of 22.7 ± 2.4 nM.
For B8, the Kd turned out to be 74 ± 9 nM. This Kd lies about 3.3-fold higher than the previous one.
For B9 the value was 64 ± 6 nM; for B10, 33.9 ± 3.2 nM; for B11, 21.3 ± 2.8 nM.
B12: the Kd is 49 ± 10 nM. This Kd lies about 2.3-fold higher than the previous one.
For the molecule B13, binding was put at a Kd of 11.3 ± 1.3 nM.
B14 gave a Kd of 84 ± 18 nM.
Take B15: the Kd was 14.6 ± 1 nM.
As for B16, the Kd came to 37 ± 14 nM.
Consider B17, for which the Kd is 9.5 ± 1.2 nM.
Under B18 stands 15.9 ± 0.9 nM; under B19, 7.2 ± 0.8 nM.
B20: the affinity, expressed as Kd, was 16.7 ± 0.7 nM.
With B21, the Kd was 45 ± 7 nM.
In the case of B22, the Kd is approximately 60 nM.
With B23, the Kd was determined as 21.3 ± 0.9 nM.
For B24 the value was 6.6 ± 0.5 nM; for B25, 12.6 ± 0.7 nM.
B26 registered a Kd of 9.8 ± 1.2 nM. The Kd values of the last two molecules are within 1.5-fold of each other.
In the case of B27, the Kd came out at 13.1 ± 0.9 nM.
